# According to patent US8735085B2, “Method for diagnosing diseases using a protein or degradation product based on half-life” (Becton, Dickinson and Company, priority 2007, dated 2014):
# Where two headings read alike, the source gives them in different places. No end group written: not given here.
# Columns and labels:
# [1] = Time-course stability of spiked isotope-labeled (AQUA) peptides in serum and plasma samples, MALDI-TOF MS, first-order fit; format: in vitro ADME, human; settings: for T1/2 (h) Citrate / T1/2 (h) EDTA / T1/2 (h) Heparin: plasma
# Excerpt: Methods of determining the half-lives of parent peptides may be determined by a process, which includes by example first spiking the peptide into one or more collection vehicles such as blood collection tubes comprising samples of biological fluid. In some embodiments, the collection vehicle is a swab. As described in an example disclosed herein, commercially available blood collection tubes sampled for determining half-lives included P100, EDTA, citrate, or heparin blood collection containers. The peak intensities of the peptide in each sample are measured at various points in time. […] Accordingly, a line may be constructed for each sample. The slope of the line (−kobs), representing the kinetic rate of the first-order degradation, may be used to compute a half-life value. That is, a kinetic rate constant can be determined by fitting the data with: Ln(I)=−kobs t+C, where I is the peak intensity, or the peak area, t is the incubation time period in the study, C is a constant, and kobs is the observed (or apparent) rate constant. The half-life of the peptide is determined by t1/2=Ln(2)/kobs.
# A direct test for stability of a peptide biomarker in a collected blood sample was carried out by monitoring its change during a time-course incubation. It was discovered that the spiked peptides themselves are subject to preanalytical degradation, and thus the spiked peptides became our focus for studying the relative instability of peptides in various blood samples. The stability of AQUA FPA was tested by adding it into either a serum or plasma sample (either BD P100, EDTA, citrate, or heparin plasma) collected from a single venipuncture, or a pooled serum or plasma sample from three healthy individuals. After the spiked sample was incubated for specified periods of time, the peptides were measured by MALDI-TOF MS.
# Human blood from healthy individuals was directly drawn into evacuated tubes to obtain serum and plasma samples, as described previously (20). Briefly, serum tubes (BD product #366430) were placed at room temperature (r.t., approx. 24° C.) to clot for 60 min after the collection of the blood, and then centrifuged at 2,500×g for 15 min. at room temperature. Plasma tubes, including citrate tube (BD product #369714), heparin tube (BD product #367886), EDTA tube (BD product #367525), and BD P100 tube (BD product #366456), were spun immediately (within 10 min. after blood was drawn), for 15 min at 2,500×g, and at room temperature to minimize the handling condition and to prevent possible platelet activation. Both plasma and serum samples were pipetted out of the blood-collection tubes into Eppendorf tubes and were frozen within 15 minutes at −80° C. until use. With these optimized handling processes, full acquisition and processing time was minimized to approximately 30 minutes for plasma and 90 minutes for serum.
# Isotopically labeled peptides were purchased from Sigma-Genosys (The Woodlands, Tex.). All peptides were synthesized with one stable isotopic amino acid residue, either L-Arginine-13C6 15N4, or L-Phenylalanine-13C9 15N1, with mass of 10 higher than its natural counterpart. The quality of each peptide was verified by HPLC, MALDI-TOF MS (FIG. 6), and amino acid analysis by the vendor with purity higher than 98%. […] The peptides were diluted with relevant solvents to make stocks of 400 fmol/μL for spiking experiments.
# The frozen serum and plasma were thawed (once only) in a room temperature water bath for approximately 5 minutes, in order to minimize the dwell time by temperature exposure of the samples. Soluble AQUA peptide (50 μL in water) was spiked into a thawed serum or plasma sample (450 μL), resulting in a final concentration of 40 fmol/μL. The samples were incubated at room temperature. A 45-μL aliquot was withdrawn at each specified time, and quenched by adding 5 μL of 2% TFA solution. […]
# [2] = Sequential multi-step reaction (SMSR) kinetic modeling of FPA and its fragments in pooled heparin plasma; format: in vitro ADME, human; settings: for incubation time at which the truncated daughter peptide was detected: AQUA FPA spiked in heparinized plasma; for apparent rate constants of the sequential reactions (k1-k5, truncation of the peptide) / half-lives: heparin plasma pooled from three healthy individuals; for apparent rate constants of the sequential reactions (k1-k5, truncation of the peptide): first-order SMSR simulation; for half-lives: four replicates, first-order SMSR; for T1/2 (h) in Heparin: SMSR model
# Experimental: Determining half-lives of the degradation products of the peptide, however, entails further modeling and calculations. For examples, sequential multi-step reaction (SMSR) model may be used. Particularly, the half-life of each daughter peptide (e.g., FPA-1, FPA-2, FPA-3, etc.) is determined using information related to one or more of its parent peptides as well as the measured behavior of the daughter peptides creation and further degradation. Accordingly, as represented below, the peptide FPA, referred to as “a” and having a kinetic rate constant k1, is used to determine the half-life of […], referred to as “b” and having a kinetic rate constant k2, which is used to determine the half-life of FPA-2, referred to as “c” and having a kinetic rate constant of k3, and so on.
# Accordingly, kj is the kinetic rate constant of step reaction j. Ii is the measured signal (i.e., the peak intensity in MALDI-TOF MS) of peptide i. For example, measured intensities of each of the degradation products of the peptide over a 4 hour time span may be seen in FIG. 3. The peak intensity of, for example, FPA-4, occurs at 2 hours, where is measures 1216.670 m/z. A0 is the initial peak intensity of the parent peptide at time 0. Since Ii=K′iCi+I0, and I0=0 after baseline subtraction, then Ii=K′iCi or Ci=KiIi (1), where
# Such calculations are performed for different points in time (i.e., different values of t), so as to plot the varying intensities of each degradation product against the reaction time, as shown in FIG. 4b. The rate constant of each step reaction, kj, can be computed by simulation of the equations (2b)-(6b). Then, the half-lives for each degradation product may be calculated by the equation t1/2=Ln(2)/kj.
# For determining kinetic rate constants in a complex sequential reaction observed in this study, analytical solutions were derived from, a first order sequential multi-step reaction (SMSR), as explained above in the discussion concerning equations (1)-(6), (2a)-(6a), and (2b)-(6b). MATLAB (Version 7.0, Mathworks) was employed to numerically simulate this model with the experimental data, and reaction rate constants were then determined in the sequential pattern following the chain reaction sequences. The modeling process was optimized to achieve a best fit to R^2 (goodness-of-fit) calculation.
# The observed decrease of the spiked AQUA FPA peptide is caused by the intrinsic amino-peptidase activity (9, 15, 20, 33) as its six fragments, sequentially truncated from the amino terminus, can be detected during the incubation (FIG. 3, FIG. 8). The process was easily observed in heparinized plasma, since the relative instability in this sample facilitated detection of the various truncated peptides within a reasonable experimental time frame (FIG. 3). […] During further incubation, smaller daughter peptides were detected: FPA-3 at 30 min, FPA-4 at one hour, and both FPA-5 and FPA-6 at two hours (FIG. 3, FIG. 8). None of these peptides was detected after eight-hour incubation.
# The measurement of the degradation products was sufficiently unambiguous as to allow definition of a kinetic model of the degradation process. To determine the rate constants of the sequential reaction, the fragments of FPA: FPA-1, FPA-2, FPA-3, FPA-4 (FIG. 3), were measured in heparin plasma pooled from three healthy individuals with four replicates, and the average of peak intensities were modeled according to a first-order SMSR (FIG. 4). Simulation of the peak intensities of time-course MS (FIG. 4B) gave apparent rate constants of the sequential reactions: k1=2.1, k2=0.29, k3=1.96, k4=1.6, and k5=0.04 h^−1 for the first five step truncations (FIG. 4A), with goodness-of-fit (R^2) of 0.84, 0.78, 0.77, 0.87, and 0.76, respectively. Accordingly, the half-lives of FPA, FPA-1, FPA-2, FPA-3, and FPA-4 are 0.29, 2.1, 0.31, 0.38, and 15.2 hours, respectively (FIG. 4A). […]
Substance,peptidase-induced degradation of isotopic labeled peptide [1],incubation time at which the truncated daughter peptide was detected [2],"apparent rate constants of the sequential reactions (k1-k5, truncation of the peptide) [2]",half-lives [2],T1/2 (h) in Heparin ([2]; heparin plasma),other results
"NGFKSHALQLNNRQIR-OH [C4, NGFKSHALQLNNRQIR]",instability has been observed,–,–,–,–,–
DFLAEGGGVR (listed as Homo sapiens) [FPA-6],–,at two hours,–,–,–,–
GDFLAEGGGVR (listed as Homo sapiens) [FPA-5],–,at two hours,–,–,–,–
EGDFLAEGGGVR (listed as Homo sapiens) [FPA-4],–,at one hour,0.04 h⁻¹,15.2 h,15.2 h,"enhanced half-life compared to the parental FPA ([2]; heparin plasma): 52 fold; time at which the peak intensity occurs ([2]; heparin plasma, 4 hour time span, FIG. 3): 2 h"
DSGEGDFLAEGGGVR (listed as Homo sapiens) [FPA-1],–,Time 0,0.29 h⁻¹,2.1 h,2.1 h,enhanced half-life compared to the parental FPA ([2]; heparin plasma): 7 fold
SSKITHRIHWESASLLR (listed as Homo sapiens) [C3f],instability has been observed,–,–,–,–,"T1/2 (h) Citrate ([1]; human): 0.039 ± 0.01 h; T1/2 (h) EDTA ([1]; human): 0.082 ± 0.01 h; T1/2 (h) Heparin ([1]; human): 0.075 ± 0.01 h; T1/2 (h) Serum ([1]; human, serum): 0.079 ± 0.01 h"
GEGDFLAEGGGVR (listed as Homo sapiens) [FPA-3],–,at 30 min,1.6 h⁻¹,0.38 h,0.38 h,–
SGEGDFLAEGGGVR (listed as Homo sapiens) [FPA-2],–,Time 0,1.96 h⁻¹,0.31 h,0.31 h,–
ADSGEGDFLAEGGGVR (listed as Homo sapiens) [FPA],–,–,2.1 h⁻¹,0.29 h,0.29 h,"detectable up until a period of time after collection [1]: 12 to 48 h; detection of peak after incubation [1]: still easily detected at 48 hours; time until undetectable after collection [1]: undetectable in less than two hours; T1/2 (h) Citrate ([1]; human): <0.1 h; T1/2 (h) EDTA ([1]; human): 3.51 ± 0.05 h; T1/2 (h) Heparin ([1]; human): 0.55 ± 0.02 h; T1/2 (h) Serum ([1]; human, serum): 0.30 ± 0.01 h; half-life in serum (too short to be measured) ([1]; human, serum): less than 15 min."
GLP-1: glucagon-like peptide-1,instability has been observed,–,–,–,–,–
RPPGFSPFR [bradykinin],–,–,–,–,–,"peptidase-induced degradation of isotopic labeled peptide ([1]; blood samples, BNP, GLP-1, bradykinin data not shown): instability has been observed"
BNP: brain natriuretic peptide,instability has been observed,–,–,–,–,–
